Biological target: His6-human talin (human) (UniProt Q9Y490)
Assay: pull-down

B1: His6-vinculin head (Vh), vinculin D1 domain (amino acid residues 1–258) (domain or fragment)
chain: MPVFHTRTIESILEPVAQQISHLVIMHEEGEVDGKAIPDLTAPVSAVQAAVSNLVRVGKETVQTTEDQILKRDMPPAFIKVENACTKLVRAAQMLQADPYSVPARDYLIDGSRGILSGTSDLLLTFDEAEVRKIIRVCKGILEYLTVAEVVETMEDLVTYTKNLGPGMTKMAKMIDERQQELTHQEHRVMLVNSMNTVKELLPVLISAMKIFVTTKNTKSQGIEEALKNRNFTVEKMSAEINEIIRVLQLTSWDEDAW
fold lower IC50 than that of the RIAM peptide: 100 fold
